Where “and” joins values, the source holds several entries; their conditions need not be identical. Equal values may be shown once. Entries after “also recorded” stand apart in the source; their conditions may differ.
B1: Arabidopsis thaliana AtSWEET7 transporter, wild type (Table 2: SEQ ID NO: 3; FIG. 12: SEQ ID NO:2) (Arabidopsis thaliana) (protein)
chain: MVFAHLNLLRKIVGIIGNFIALCLFLSPTPTFVRIVKKKSVEEYSPIPYLATLINCLVWVLYGLPTVHPDSTLVITINGTGILIEIVFLTIFFVYCGRQKQRLIISAVIAAETAFIAILAVLVLTLQHTTEKRTMSVGIVCCVFNVMMYASPLSVMKMVIKTKSVEFMPFWLSVAGFLNAGVWTIYALMPFDPFMAIPNGIGCLFGLAQLILYGAYYKSTKRIMAERENQPGYVGLSSAIARTGSEKTANTNQEPNNV
B2: LST1_205437: Lipomyces starkeyi LST1 transporter polypeptide, SEQ ID NO:4, GenBank ODQ75362.1 (protein)
chain: MGFLGFLNRSQASEPVEKESTATTPSEGRTPQRPLSPAVGVPLEQDFETQLSAKDAPLLAFILGGVASVGGFMFGYQTGQISGFLEMSDFKTRFAACNSQTGQCTFSAARQGTIVGLFSIGTLIGSLIAAPIADRIGRRLTISFWAFFFMIGTVLEISSSHVWVQFAMGRFVGGLGIGALSVVVPMYQSESTPRMIRGVIVSSYQLMVTLGIWLAYMINWGTESLQGSQSWRITNGMSFLWALVLGIAILGLPESPRYAYRVGREEEARKNMARLYKLSPNHPIINLEIQEIQEKLDAERVGGDHPWYEIFTGPRMLYRTILGMVLQAGQQLTGANYFFYYGTTVFSATGLSNSYVTQIILGSVNVGGTIAGLWLIENCGRRKALMGGAAWMFMCFMVFAFVGHFSLDHQNPEATPQAGAALVVFSCLFIIAFAMTWGPIVWAIVGELYPARYRATCMGLATSSNWLFNFLIGFFTTFITGDIDYLYGLVFAGCCFALFFIVYFFVIETKGRSLEEIDTMYVLHVNPINSAKWDSSQLMRDGDGLVNTDDLYLEAGGNRFAKDEHSAHEMIPSHDENAPGPSHTSHADIEKAESSGAESRDAL
modifications: Lipomyces starkeyi LST1_204537 transporter polypeptide
B3: ScGal2: S. cerevisiae Gal2 hexose transporter, control; SEQ ID NO:32 (protein)
chain: MAVEENNMPVVSQQPQAGEDVISSLSKDSHLSAQSQKYSNDELKAGESGSEGSQSVPIEIPKKPMSEYVTVSLLCLCVAFGGFMFGWDTGTISGFVVQTDFLRRFGMKHKDGTHYLSNVRTGLIVAIFNIGCAFGGIILSKGGDMYGRKKGLSIVVSVYIVGIIIQIASINKWYQYFIGRIISGLGVGGIAVLCPMLISEIAPKHLRGTLVSCYQLMITAGIFLGYCTNYGTKSYSNSVQWRVPLGLCFAWSLFMIGALTLVPESPRYLCEVNKVEDAKRSIAKSNKVSPEDPAVQAELDLIMAGIEAEKLAGNASWGELFSTKTKVFQRLLMGVFVQMFQQLTGNNYFFYYGTVIFKSVGLDDSFETSIVIGVVNFASTFFSLWTVENLGHRKCLLLGAATMMACMVIYASVGVTRLYPHGKSQPSSKGAGNCMIVFTCFYIFCYATTWAPVAWVITAESFPLRVKSKCMALASASNWVWGFLIAFFTPFITSAINFYYGYVFMGCLVAMFFYVFFFVPETKGLSLEEIQELWEEGVLPWKSEGWIPSSRRGNNYDLEDLQHDDKPWYKAMLE
modifications: protein sequence alignmnet of ScGal2

How the values were obtained:
[1] = substrate: OC[C@H]1OC(O)[C@H](O)[C@@H](O)[C@@H]1O; assay: cells, lysate or membranes; settings: other: initial glucose uptake (5 s), 30° C., pH 6.5, 0.2 to 100 mM glucose, ± SEM in Table 1
[2] = test system: transporter-overexpressing SR8D8; assay: Inhibition of xylose uptake by glucose; format: cell-based, S. cerevisiae; settings: 25 mM or 100 mM glucose
Method: SR8D8 containing the respective plasmid was grown on selective YPE medium to an OD600 of 1-1.5, harvested by centrifugation, and washed twice in ice-cold uptake buffer (100 mM potassium phosphate, pH 6.5). C14 labeled sugar uptake assay was done according to Boles and Oreb. Radioactivity was analyzed in a Beckman-Coulter LS6500 multi-purpose liquid scintillation counter (Beckman-Coulter, CA, USA).
Sugar solutions contained 0.135-0.608 μCi of D-[U-^14C]-glucose (290-300 mCi/mmol) or D-[1-^14C]-xylose (55 mCi/mmol) (PerkinElmer, MA, USA). Calculation of Km (Michaelis constant), Vmax (maximal initial uptake velocity), and K (inhibitor constant for competitive inhibition) was done by nonlinear regression analysis and global curve fitting in Prism 7 (GraphPad Software) with values of three independent measurements.

[3] = test system: SR8D8 expressing transporter; assay: Transporter screening for growth on glucose or xylose (Bioscreen C); format: cell-based, S. cerevisiae; settings: glucose or xylose containing medium, OD600
Method: ScGal2 expressing SR8D8 were used as a positive control (FIG. 3). Most of the AtSWEETs and putative oleaginous transporters expressing strains were not able to grow on glucose or xylose.
(§1) A xylose fermenting S. cerevisiae yeast (SR8) with HXT1-7Δ, GAL2Δ deletions was used for transporter screening and characterization (SR8D8). SR8D8 was grown in YPE medium/plate (10 g/L yeast extract, 20 g/L peptone, and 5 g/L ethanol). […] SRD8 strains transformed with plasmid containing KanMX marker conferring resistance to G418 (geneticin) were propagated on YPE supplemented with 200 μg/ml of geneticin. For growth and flask fermentation experiments all media was supplemented with 200 μg/ml of geneticin for plasmid maintenance. Biomass was calculated from the OD600 measured using a Biomate 5 UV-visible spectrophotometer (Fisher, NY, USA). All growth rates were measured using a Bioscreen C plate reader system (Growth Curves USA, Piscataway, NJ, USA). A 2 μL inoculum of fully grown culture was added into 200 μL YP (+200 μg/ml Geneticin) with varying concentrations of different sugars. A wide band filter (420-580 nm) was used to measure optical density. Bioscreen C values represent mean value from three biological replicates. In all cases, the Bioscreen C was set to maintain a temperature of 30° C. and high aeration through high continuous shaking.

[4] = test system: SR8D8 expressing transporter; assay: Mixed sugar fermentation at industrially relevant sugar concentrations; format: cell-based, S. cerevisiae; settings: 7% glucose and 4% xylose (70 g/L, 40 g/L)
Method: (§2) For flask fermentation, a single colony was inoculated to 5 or 25 mL YPE ([…], 1% w/v yeast extract, 2% peptone, 5% ethanol) supplemented with 200 μg/ml of geneticin to obtain seed cultures. […] Flask fermentations were maintained at 30° C. and 250 rpm.

[5] = test system: SR8D8 expressing transporter; assay: Glucose and xylose mixed sugar flask fermentation (20 g/L each); format: cell-based, S. cerevisiae; settings: 20 g/L of glucose and xylose, YP medium
Method: as §2, §1

[6] = test system: SR8D8 expressing transporter; assay: Sole glucose or xylose flask fermentation; format: cell-based, S. cerevisiae; settings: glucose or xylose conditions, YP medium
Method: as §2, §1

Row | Molecule | Km [1] | inhibition of xylose transport by glucose (in words) [2] | growth / transport capacity on glucose or xylose [3] | growth / transport capacity on glucose or xylose ([3]; listed as SWEET7) | mixed sugar utilization profile at high sugar [4] | glucose and xylose mixed sugar fermentation phenotype [5] | glucose and xylose mixed sugar fermentation phenotype ([5]; listed as SWEET7) | sole sugar fermentation performance [6] | glucose and xylose mixed sugar fermentation phenotype ([5]; listed as GAL2)
1 | B1 | 75 mM and 74.1 ± 13.0 mM | do not have any xylose transport inhibition in the presence of both 25 mM and 100 mM glucose | substantial growth on xylose and glucose; also recorded: both glucose and xylose transport capacity | capable of sustaining an efficient growth on glucose or xylose | co-consumption of glucose and xylose even at higher glucose concentrations | simultaneous co-consumption of glucose and xylose with almost the same rates of sugar consumption; also recorded: true co-fermentation phenotype | simultaneously utilize glucose and xylose | enabled glucose and xylose fermentation, depleting all provided sugars | –
2 | B2 | – | partial inhibition of xylose uptake by glucose | substantial growth on xylose and glucose; also recorded: capable of sustaining an efficient growth on glucose or xylose | – | partial xylose and glucose co-consumption | co-consumption of glucose and xylose; also recorded: partial co-fermentation; also recorded: simultaneously utilize glucose and xylose | – | enabled glucose and xylose fermentation, depleting all provided sugars | –
3 | B3 | – | complete xylose inhibition even at the presence of 25 mM glucose | – | – | sequential utilization of glucose and xylose | sequential fermentation | – | – | transport both glucose and xylose in a sequential manner; also recorded: sequential manner of sugar utilization

Reference: US12686846B2, “Plant sweet and yeast MSF transporter capable of transporting different sugars simultaneously” (THE BOARD OF TRUSTEES OF THE UNIVERSITY OF ILLINOIS, priority 2020, dated 2026)
